{"source": "patent US20180057581A1", "about": "(MorphoSys, published 2018)", "key": {"RNase A (cow)": {"biological_target": "T1, RNase A (cow) (cow, UniProt P61823 27-150)", "T1 sequence (looked up)": "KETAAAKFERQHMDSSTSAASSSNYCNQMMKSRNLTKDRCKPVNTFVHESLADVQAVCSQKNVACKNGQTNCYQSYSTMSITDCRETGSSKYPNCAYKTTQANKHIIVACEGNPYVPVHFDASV", "test": "MSD specificity profiling, coated protein", "description": "(§1) For this specificity profiling test the different proteins and controls were coated on two 384-well MSD plates with a concentration of 1 μg/ml at 4° C. over night. Plates were blocked with BSA and washed three times with PBS with 0.05% (v/v) Tween 20. Antibody samples were diluted to 100 nM and 10 nM in assay buffer (PBS with 0.5% (w/v) BSA, 0.05% (v/v) Tween 20). […] Samples and controls were incubated for three hours at room temperature. The plates were washed three times and 30 μl detection antibody (ECL-labeled anti-human Fab) were added per well and incubated for 1 h. After washing, MSD Read Buffer T with surfactant was added and electrochemiluminescence signals were detected using a Sector Imager 6000 (Meso Scale Discovery, Gaithersburg, Md., USA)."}, "Pepsinogen (pork)": {"biological_target": "Pepsinogen (pork) (pork, UniProt P00791 16-385)", "sequence (P00791 16-385)": "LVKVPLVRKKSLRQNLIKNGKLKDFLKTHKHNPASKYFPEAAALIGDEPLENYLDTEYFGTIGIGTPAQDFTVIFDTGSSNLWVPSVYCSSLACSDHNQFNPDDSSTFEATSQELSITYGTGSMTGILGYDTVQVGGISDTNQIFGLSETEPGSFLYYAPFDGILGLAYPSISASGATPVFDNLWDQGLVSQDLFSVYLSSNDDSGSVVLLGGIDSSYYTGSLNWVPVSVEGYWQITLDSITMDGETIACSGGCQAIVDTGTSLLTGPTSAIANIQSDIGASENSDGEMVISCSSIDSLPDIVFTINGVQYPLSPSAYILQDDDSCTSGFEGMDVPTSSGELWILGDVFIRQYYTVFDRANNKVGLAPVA", "test": "MSD specificity profiling, coated protein", "description": "as §1"}, "Lysozyme (chicken) [1]": {"biological_target": "T2, Lysozyme (chicken) (chicken, UniProt P00698 19-147)", "T2 sequence (P00698 19-147)": "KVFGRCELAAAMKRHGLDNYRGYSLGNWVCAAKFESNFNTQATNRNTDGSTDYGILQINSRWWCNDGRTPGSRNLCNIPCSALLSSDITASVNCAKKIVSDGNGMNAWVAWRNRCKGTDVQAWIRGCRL", "test": "MSD specificity profiling, coated protein", "description": "as §1"}, "RNase B (cow) [2]": {"biological_target": "T3, RNase B (cow) (cow, UniProt P61823 27-150)", "T3 sequence (looked up)": "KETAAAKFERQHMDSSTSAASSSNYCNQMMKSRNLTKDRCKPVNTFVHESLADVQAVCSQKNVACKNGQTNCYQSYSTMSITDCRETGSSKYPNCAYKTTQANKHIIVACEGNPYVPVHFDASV", "test": "MSD specificity profiling, coated protein", "description": "as §1"}, "Trypsinogen (cow) [3]": {"biological_target": "T4, Trypsinogen (cow) (cow, UniProt P00760 18-246)", "T4 sequence (looked up)": "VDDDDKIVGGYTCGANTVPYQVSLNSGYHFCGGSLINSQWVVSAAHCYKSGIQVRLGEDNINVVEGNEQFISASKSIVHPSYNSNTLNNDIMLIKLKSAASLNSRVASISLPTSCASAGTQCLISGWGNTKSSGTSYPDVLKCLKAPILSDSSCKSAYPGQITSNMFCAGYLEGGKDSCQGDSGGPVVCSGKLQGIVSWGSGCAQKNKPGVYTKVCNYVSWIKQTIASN", "test": "MSD specificity profiling, coated protein", "description": "as §1"}, "[4]": {"biological_target": "Cell surface receptor 3 (human) (human)", "test": "MSD specificity profiling, coated protein, Camille at 10 nM", "description": "as §1"}, "[5]": {"biological_target": "Trypsin inhibitor (Soybean) (Soybean)", "sequence (P01070 25-205)": "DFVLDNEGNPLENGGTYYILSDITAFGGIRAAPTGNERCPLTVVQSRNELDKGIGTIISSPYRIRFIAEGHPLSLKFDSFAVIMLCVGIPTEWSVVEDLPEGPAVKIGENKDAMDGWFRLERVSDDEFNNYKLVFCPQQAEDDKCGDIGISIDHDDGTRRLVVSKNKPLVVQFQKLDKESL", "test": "MSD specificity profiling, coated protein, Camille at 10 nM", "description": "as §1"}, "human M-CSF": {"biological_target": "T5, human M-CSF (human, UniProt P09603 33-255, limits assumed)", "T5 construct": "also called M-CSF (human); CSF-1", "T5 sequence": "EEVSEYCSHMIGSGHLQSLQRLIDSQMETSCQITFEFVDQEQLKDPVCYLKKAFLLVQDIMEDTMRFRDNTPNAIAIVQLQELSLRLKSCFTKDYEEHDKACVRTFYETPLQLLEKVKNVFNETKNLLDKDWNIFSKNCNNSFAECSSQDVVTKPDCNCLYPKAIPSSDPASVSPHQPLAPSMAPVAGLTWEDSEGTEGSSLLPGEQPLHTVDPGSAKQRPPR", "test": "MSD specificity profiling, coated protein, Camille at 10 nM", "description": "as §1"}, "Cytokine 2 (human)": {"biological_target": "Cytokine 2 (human) (human)", "test": "MSD specificity profiling, coated protein, Camille at 10 nM", "description": "as §1"}, "Lysozyme (chicken) [6]": {"biological_target": "T2, Lysozyme (chicken)", "test": "MSD specificity profiling, coated protein, Camille at 10 nM", "description": "as §1"}, "Ovalbumin (chicken)": {"biological_target": "T6, Ovalbumin (chicken) (chicken, UniProt P01012 2-386)", "T6 sequence (looked up)": "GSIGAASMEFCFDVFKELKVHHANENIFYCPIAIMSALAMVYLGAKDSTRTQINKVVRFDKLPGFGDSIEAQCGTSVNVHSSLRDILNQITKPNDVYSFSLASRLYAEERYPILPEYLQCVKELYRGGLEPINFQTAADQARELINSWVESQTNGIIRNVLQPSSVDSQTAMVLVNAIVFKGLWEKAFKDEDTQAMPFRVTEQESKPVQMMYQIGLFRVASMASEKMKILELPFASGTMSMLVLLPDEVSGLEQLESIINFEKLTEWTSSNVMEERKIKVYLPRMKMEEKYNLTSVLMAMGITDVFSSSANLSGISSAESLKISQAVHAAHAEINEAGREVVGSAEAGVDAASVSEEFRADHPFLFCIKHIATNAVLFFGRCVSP", "test": "MSD specificity profiling, coated protein, Camille at 10 nM", "description": "as §1"}, "RNase B (cow) [7]": {"biological_target": "T3, RNase B (cow)", "test": "MSD specificity profiling, coated protein, Camille at 10 nM", "description": "as §1"}, "Serum albumin (human)": {"biological_target": "Serum albumin (human) (human, UniProt P02768 25-609)", "test": "MSD specificity profiling, coated protein, Camille at 10 nM", "description": "as §1"}, "[8]": {"biological_target": "Anti-human Fab (Dianova, # 109-005-097)", "test": "MSD specificity profiling, coated protein, Camille at 10 nM", "description": "as §1"}, "Trypsinogen (cow) [9]": {"biological_target": "T4, Trypsinogen (cow)", "test": "MSD specificity profiling, coated protein, Camille at 10 nM", "description": "as §1"}, "Cytochrome c (cow)": {"biological_target": "Cytochrome c (cow) (cow, UniProt P62894 2-105)", "sequence (P62894 2-105 limits assumed)": "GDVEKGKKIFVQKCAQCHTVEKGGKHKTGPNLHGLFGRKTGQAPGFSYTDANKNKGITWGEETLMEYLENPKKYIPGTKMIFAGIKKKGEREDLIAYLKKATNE", "test": "MSD specificity profiling, coated protein, Camille at 10 nM", "description": "as §1"}, "[10]": {"biological_target": "Aminogylcosidase (Aspergillus niger) (Aspergillus niger)", "sequence (P69328 25-640)": "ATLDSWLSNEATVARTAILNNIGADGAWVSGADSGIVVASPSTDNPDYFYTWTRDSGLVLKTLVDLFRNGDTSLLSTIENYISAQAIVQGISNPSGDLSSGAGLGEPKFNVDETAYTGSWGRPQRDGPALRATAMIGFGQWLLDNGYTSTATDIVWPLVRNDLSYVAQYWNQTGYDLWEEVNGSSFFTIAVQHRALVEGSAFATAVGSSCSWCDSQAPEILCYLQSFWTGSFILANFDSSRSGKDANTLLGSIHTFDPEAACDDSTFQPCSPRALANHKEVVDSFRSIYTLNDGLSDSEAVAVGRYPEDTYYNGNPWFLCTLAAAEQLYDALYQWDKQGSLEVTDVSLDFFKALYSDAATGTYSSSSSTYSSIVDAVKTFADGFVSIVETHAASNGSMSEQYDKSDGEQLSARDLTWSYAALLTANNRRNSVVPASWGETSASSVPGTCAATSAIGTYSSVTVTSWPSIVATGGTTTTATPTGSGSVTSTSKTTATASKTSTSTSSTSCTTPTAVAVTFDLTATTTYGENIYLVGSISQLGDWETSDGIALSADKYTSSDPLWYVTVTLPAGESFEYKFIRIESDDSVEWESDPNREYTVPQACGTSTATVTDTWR", "test": "MSD specificity profiling, coated protein, Camille at 10 nM", "description": "as §1"}}, "data": [{"binder": "Camille (format not stated) (antibody, V domains shown, also called Antibody Camille) VH: QVQLQQSGPGLVKPSQTLSLTCAISGESVSTSSAAWNWIRQSPSRGLEWLGRTYYRSKWKHEYAVSVKSRITINPDTSKNQFSLQLNSVTPEDTAVYYCARDRYYYSAFDYWGQGTLVTVSS VL: QSALTQPASVSGSPGQSITISCTGTSSDVGGYNSVSWYQQHPGKAPKLLIYAVSNRPSGVSNRFSGSKSGNTASLTISGLQAEDEADYYCASYDERFTRVFGGGTKLTVLG", "values": [{"measurement": "binding result", "setting": "RNase A (cow)", "result": "no binding (tested: 100 nM and 10 nM antibody)"}, {"measurement": "binding result", "setting": "Pepsinogen (pork)", "result": "no binding (tested: 100 nM and 10 nM antibody)"}, {"measurement": "binding result", "setting": "Lysozyme (chicken) [1]", "result": "no binding (tested: 100 nM and 10 nM antibody)"}, {"measurement": "binding result", "setting": "RNase B (cow) [2]", "result": "no binding (tested: 100 nM and 10 nM antibody)"}, {"measurement": "binding result", "setting": "Trypsinogen (cow) [3]", "result": "no binding (tested: 100 nM and 10 nM antibody)"}, {"measurement": "signal normalized to reference antibody MOR03207", "setting": "[4]", "result": 1, "unit": "ratio"}, {"measurement": "signal normalized to reference antibody MOR03207", "setting": "[5]", "result": 1, "unit": "ratio"}, {"measurement": "signal normalized to reference antibody MOR03207", "setting": "human M-CSF", "result": 244, "unit": "ratio"}, {"measurement": "signal normalized to reference antibody MOR03207", "setting": "Cytokine 2 (human)", "result": 1, "unit": "ratio"}, {"measurement": "signal normalized to reference antibody MOR03207", "setting": "Lysozyme (chicken) [6]", "result": 0, "unit": "ratio"}, {"measurement": "signal normalized to reference antibody MOR03207", "setting": "Ovalbumin (chicken)", "result": 1, "unit": "ratio"}, {"measurement": "signal normalized to reference antibody MOR03207", "setting": "RNase B (cow) [7]", "result": 1, "unit": "ratio"}, {"measurement": "signal normalized to reference antibody MOR03207", "setting": "Serum albumin (human)", "result": 1, "unit": "ratio"}, {"measurement": "signal normalized to reference antibody MOR03207", "setting": "[8]", "result": 1, "unit": "ratio"}, {"measurement": "signal normalized to reference antibody MOR03207", "setting": "Trypsinogen (cow) [9]", "result": 1, "unit": "ratio"}, {"measurement": "signal normalized to reference antibody MOR03207", "setting": "Cytochrome c (cow)", "result": 1, "unit": "ratio"}, {"measurement": "signal normalized to reference antibody MOR03207", "setting": "[10]", "result": 1, "unit": "ratio"}]}]}
